Assay: yeast display, Sf9 membrane polyspecificity reagent, FACS + sequencing; frameworks hold sequencing errors
Summary of the method: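 Synthetic nanobody libraries on Saccharomyces cerevisiae BJ5465 were galactose-induced for 36–48 hours, stained 1 hour at 4 °C with 10% biotinylated, detergent-solubilized Sf9 membrane reagent and enriched on streptavidin microbeads. FACS then separated cells into low and high (top ~1%) gates by anti-HA (expression) and streptavidin (reagent binding) fluorescence. Genes were colony-PCR amplified, MiSeq 2 × 250 sequenced and CDR-length filtered. A clone's polyreactivity label is that of its gate of origin.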

Row | Sequence | polyreactivity (PSR sort gate)
1 | QVQLVESGGGLVQAGCSLRLSCAASGSIYPYAMGCYRQAPGKESELVAAINFNGGRTYYAHSVNGRFTISRDNAKNTVYLQMTSLKPDVTAFYYCAARISVYSTLPNDFDYWGQGTQVTVSS | high polyreactivity
2 | QVQLVESGGGLVQAGCSLRLSCAASGSTFPYNTMGWYRQAPGKERELVAAITSSAGSTYYADSVKGRFTISRDNAKNTVYLQMNSLKPDDTAVYYCAADYIVWKGSNSYYYAGYYYWGQGTQVTVSS | low polyreactivity
3 | QVQLVESGGGLVQAGCSLRLSCAASGSTFRWYAMGWYRPAPGKEREFVAAITSSGGSTYYADSVKGRFTISRDNAKNTVYLQMNSLKPEDTAVYYCNRRYQPYSYDYWGQGTQVTVSS | high polyreactivity
4 | QVQLVESGGGLVQAGCSLRLSCAATGFIFKRNAMGWYRQAPGKERELVAAITKSGVNSYYADSVKGRFTISRDNAKNTVYLLMNSLKPEDTAVYYCAARGNRKQAWYKYNYCGQGTQVTVSS | high polyreactivity
5 | QVQLVESGGGLVQAGCSLRLSCAAYGSIFSYNAMGWYRQAPGKERELVASISWSGGRTFYADSVKGRFTISRDNAKNTVYLQMNSLKPEDTAVYYCAFRHYSTYYSRFGYWGQGTKVTVSS | high polyreactivity
6 | QVQLVESGGGLVQAGCSLRLSCAPSGSTFKVNDMGWYRQAPGKERELVAAIDKSGGTTYYADSVKGRFTLSRDNAKNTVYYQMNSLKPEDTAVYYCAADVIYEMDYWGQGTQVTVSS | low polyreactivity
7 | QVQLVESGGGLVQAGCSLRLSCDASGRIFVTNAMGWYRQAPGKERELVAANSYRGGRTYYADSVKGRFTISRDNAKNTVYLQMNSLKPEDTAVYYCNAVTRWPFDYWGQGTQVTVSS | high polyreactivity
8 | QVQLVESGGGLVQAGCSLRLSCSASGRIFGYYAKGWYRQAPGKERELVARISGRGGSTYYADSVKVRFSISRDNAQKTVILQMNSLNPEDTAVYYCNVVLSFWKYYAYDQGDYWGQGTQVTVSS | low polyreactivity
9 | QVQLVESGGGLVQAGCSLRLSPASGSTLAGNTMGWYRQAPGKERELVAAINDSGGSTYYADSVKGRFTISRDNAKNSVNLQMNSLKPEDTGVYYCNADGSAYIEDGYDYWGQGTQVTVSS | low polyreactivity
10 | QVQLVESGGGLVQAGCSLRLSSAASGSTFLGYAMGWYRQAPGKERELVAAITYSAGSTYYADSVKGRFTISRDNAKNTVYLQMNSLKPEDTAVYYCSKRYSGYDHWGQGTQVTVSS | low polyreactivity
11 | QVQLVESGGGLVQAGCSLRLTCAASGSTFKKYAKGWYRQAPGKERDFVAAISRGGRTYYAYSVKGRFTISRDNAKNTVYLQMNSLKPEDTAVYYCAAETFGYQEVYFWGQGTQVTVSS | high polyreactivity
12 | QVQLVESGGGLVQAGCSLSLSCAASGITFRSYAKGWYRQAPGKERELVAAIRSGGSTSYADSVKGRFTISRDNAKYTVYLQMNSLKPEDTAVYYCAAGGYVPLPDITFWKFGYWGQGTQGTVSS | low polyreactivity
13 | QVQLVESGGGLVQAGCSLSLSCAASGSIFGRYTMGWYRQAPGKERELVAAINLRGGSTYYADSVKGRFTISRDNAKNTVYLQMNSLKPEDTAVYYCATVGWKQSAYDYWGQGTQVTVSS | low polyreactivity
14 | QVQLVESGGGLVQAGCSRRLSCAASGSIFYHNAMGWYRQAPGKERELVAAISGRGGSTYYADSVKGRFTISRDNAKNTVYLQMNSLKPEDTAVYYCAADARYQNGGLYYWGQGPQVTVSS | high polyreactivity
15 | QVQLVESGGGLVQAGCTLRISCAPSGSIFVYNDMGWSRQAPGKERELVASISNGDNTNYADSVKGRFTISRDNAKNTVYLQMNSLKPEDTAVYYCAADGYIGSVVAYGERDYWGQGTQVTVSS | low polyreactivity
16 | QVQLVESGGGLVQAGDSLRLICAASGFIFDNYAMGWYRQAPGKERELVAAISQSGTSTYYADSVKVRFTISRDIAKNTVYLQLISLKPEDTAVYYCNVVPTGVHIFDYWGQGTQVTVSS | low polyreactivity
17 | QVQLVESGGGLVQAGFSLRLSCAASGSILGSYVMGWCRQAPGKESELVAASSYSTSATYYADSVKGRFTISRDNAKNTVYLQMNSLKPEDPAVYYCNADLGSWYTWYDDWGQGTQVTVSS | high polyreactivity
18 | QVQLVESGGGLVQAGGCLRLSCAASGFIFSKNVMGWYRQAPGTERELVARITRSGGTTNYADSVKGRFTISRDNAKNTVYLQMNSLNPGDTAVYFCAARGYGYTSITWYDYWGQGTQVTVSS | high polyreactivity
19 | QVQLVESGGGLVQAGGCLRLSCAGSRSTFHYYTMGWYRQAPGKERELVAAISWRGTSTYYADSVKGRFTISRDNAKNTLYVQMNSLKPEDTGVYYCAVRSSPGAGYYYWGQGTQGTVSS | high polyreactivity
20 | QVQLVESGGGLVQAGGGLRLSCAASGRIFAGYAMGWYRQAPGKEREFVAAISRSGVSTYYADSVKGRFTISRDNAKNTVYLQMNSLKPEDTAVYYCNVYKGNVVEHDYWGQGTQVTVSS | high polyreactivity
21 | QVQLVESGGGLVQAGGILLLSCAASRRIFGVYAMGWYIQAPGKERELVATIRSSGTRKNYADSLKGRFTISRDNAKNTVYLQLNSLKPEDTAVYYCAAGGRPYKLDFTRSDYWGHGTQVTVSS | low polyreactivity
22 | QVQLVESGGGLVQAGGILRLRCAASGSTYGYYAMGWSRQAPGKERELVAAISGSGGRTYYADSVKGRFTISRDNAKNTVYLQMNSLKPEDTAVYYCNTATKNIYDYCGQGTQVTVSS | high polyreactivity

Row | Sequence | polyreactivity (PSR sort gate)
23 | QVQLVESGGGLVQAGGILRLSCAASGFIFRDYAMGWYRQAPGKERELVAAISFTDGTTYYADSVKGRFTISRDNAKNTVYLQMNSLKPEDTAVYYCAAGYTGYTYTELDYWGQGTQVTVSS | low polyreactivity
24 | QVQLVESGGGLVQAGGILRLSCAASGFIFYHYAMGWYRQAPGKERELVASITSGGRTYYADSVKGRFTISRDNAKNTVSLQMNRLKPEDTAVYYCAAAYYYYSSPRFTTGMDYWGQGTQVTVSS | high polyreactivity
25 | QVQLVESGGGLVQAGGILRLSCAASGFTFGLYAMGWYRQAPGTERELVAAIRNNGGSTYYADSVKGRFTISRDNAKNTVYLQMNSLKPDDTAVYYCAKKSFFTGRWWYDYWGQGTQVSVSS | high polyreactivity
26 | QVQLVESGGGLVQAGGILRLSCAASGFTFKANAMGWYRQAPGKERELVAAISRRGSSTYYADSVKGRFTISRDNAKNTVYLQMNSLKPEDTAVYYCNTKPRAGRTKLGYWGQGTQVTVSS | high polyreactivity
27 | QVQLVESGGGLVQAGGILRLSCAASGFTFNNYAMGWYRQAPGKERELVAAISSGAGTYYAESVKGRFTISRDNAKNTVYLQMNSLKPEDTGVYYCNASLKYQGRTRITYRHDYCGQGTQVTVSS | low polyreactivity
28 | QVQLVESGGGLVQAGGILRLSCAASGGIFADYAMGWYRQAPGKERELVADISARGGSTYYADSVKGRFTISRDNAKNTVYLQMNSLKPEDTAVYYCAADALGYDYYYWGQGTQVTVSS | low polyreactivity
29 | QVQLVESGGGLVQAGGILRLSCAASGIIFGPNAMGWYRQAPGKERELVAAITSGGRTYYADSVKGRFTISRDNAKNTVYLHMNSLKPEDTAVYYCAARVWSWRSKYDYWGQGTQVTVSS | high polyreactivity
30 | QVQLVESGGGLVQAGGILRLSCAASGIISYDYDMGWYRPSPGKERELVAAISTSGGTTYYADSVKGRFTISRDNAKNTVYLQMNSLKPEDTAVYYCAADNYVGYHWYNYWGQGTQVTVSS | high polyreactivity
31 | QVQLVESGGGLVQAGGILRLSCAASGITFIRNGMGWYRQAPGKERELVAAISDTGARTYYADSVKGSFTISRDNAKNTVYLQMNSLKPVDTAVYYCAAEVRTRYLYSFRWYDYWGQGTQVTVSS | low polyreactivity
32 | QVQLVESGGGLVQAGGILRLSCAASGLTYFYYAMGWYRQAPGKESELVAAISWSGGRTYYADSVKGRFTISRDNAKNTVYLPMNSLKPEDTAVYYCAADYITAHSSYSTYGYWGQGTQVTVSS | low polyreactivity
33 | QVQLVESGGGLVQAGGILRLSCAASGRIFLYYTMGWYRQAPGKEREFVAAITRSGSSTYYADSVKGRFTISRDNAKNTVYLQMNSLKREDTAVYYCNRVFTWRYGYRYEYWGQGTHVTVSS | high polyreactivity
34 | QVQLVESGGGLVQAGGILRLSCAASGRIFRFYTMGWYRQAPGKERELVAAITSSGRTYYADSVKGRVTISRDNAKNTVYLQMNSLKPEDTAVYYCNKYFRPRTILASPGEYWGQGTQVTVSS | high polyreactivity
35 | QVQLVESGGGLVQAGGILRLSCAASGRIFYINAMGWYRQAPGKERELVATISWSGGSTNYADSVKGRFTISRDNAKNTVYLQMKSLIPEDTAVYYCAADSRIYIAYAVRSYERDYWGQGTQVSVSS | low polyreactivity
36 | QVQLVESGGGLVQAGGILRLSCAASGRIIQRYAMGWYRQAPGKERELVAAISSSGVSTYYADSVKGRFTISRDNAKNTVYLQMNSLKPEDTAVYYCNAVSSRVYRDYGYDYWGQGTQVTVSS | low polyreactivity
37 | QVQLVESGGGLVQAGGILRLSCAASGRTFLVNAMGWYRQAPGKERELVAAISQRGGSTDYADSVKGRFTISRDNAKNTVYLQMNSLKPEDTAVYYCAVRWGYLYDYWGQGTQVTVSS | low polyreactivity
38 | QVQLVESGGGLVQAGGILRLSCAASGRTFNGNAMGWYRQAPGKERELVAAISGGSTSYADSVKGRFTISRDNAKNTVYLQMNSLKPEDTAVYYCATDPSEEYDYWGQGNQVTVSS | low polyreactivity
39 | QVQLVESGGGLVQAGGILRLSCAASGRTFNQNAMGWYRQAPGKERELVAAITSRGGSTFYAASVKGRFTISRDNAKNTVYLQMNSLKPEDTAVDYCAAPRKQLEVGPGYYWGQGTQVTVSS | high polyreactivity
40 | QVQLVESGGGLVQAGGILRLSCAASGRTFSRYAMGWYRQAPGKERELVAAITWDGGSTYYADSVKGRFTISRDNAKNSVYLLMNSLKPEDTAVYYFAARYIRNRMNYWGQGTQVTVSS | high polyreactivity
41 | QVQLVESGGGLVQAGGILRLSCAASGRTLYHYVMGWYRQAPGKERELVAAISSGGSTYYADSVKGRFTISRDNAKNTVYLQMNSLKPEDTEVYYCAAGRRGDWGQGTQVTVSS | high polyreactivity
42 | QVQLVESGGGLVQAGGILRLSCAASGSIFDFYAMGWYRQAPGKERELVAAISGSGGSTYYADSVKGRFTISRDNAKNTVYLQMNSLKPEDTAVYYCSYYYWGQGTQVTVSS | low polyreactivity
43 | QVQLVESGGGLVQAGGILRLSCAASGSIFGGYGMGWYRQAPGKERELVAAITSVSSTYYADSVKGRFTISRDNAMNTVYVQMNSLKPEDTAVYYCAARPYPHSAYEGDYWGRGTQVTVSS | low polyreactivity
